B1: MGC27345 (parent)
chain: KYMPHLCQDSSGEVSCQCQLHPPR
B2: JUNB (parent)
chain: FVKALDDLHKMNHVTPPNVSLGAT
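Note: lentivirally expressed fusions sorted by FACS into six bins by GFP to DsRed ratio, PSI derived from sequencing read proportions per bin multiplied by bin number.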

Variants of: B1
Test: protein stability index of a GFP-peptide fusion (GPS, HEK-293T) (PSI 1-6); higher = more stable
Settings: c terminus: a fixed tail appended
For KYMPHLCQDSSGEVSNQCQLHPPR [C16N], the protein stability index was 3.1.
KYMPHLCQDSSGEVSTQCQLHPPR [C16T] gave a protein stability index of 2.96.
With KYMPHLCQDSSYEVSCQCQLHPPR [G12Y] the protein stability index was 1.53.
KYMPHLCQDSSGEVICQCQLHPPR [S15I] gave a protein stability index of 1.63.
For KYMPHLCQDSSGEVPCQCQLHPPR [S15P], the protein stability index was 2.67.
For KYMPHLCQDSSGEVGCQCQLHPPR [S15G], the protein stability index was 2.14.
With KYMPHLCQDSSGEVVCQCQLHPPR [S15V] the protein stability index was 2.48.
In the case of KYMVHLCQDSSGEVSCQCQLHPPR [P4V], the protein stability index is reported as 2.81.
KYMGHLCQDSSGEVSCQCQLHPPR [P4G] showed a protein stability index of 1.62.
For KYMPHLCDDSSGEVSCQCQLHPPR [Q8D], the protein stability index was 2.6.
Work on KYMPHLCWDSSGEVSCQCQLHPPR [Q8W] yielded a protein stability index of 2.65.
Work on KYMPHLCVDSSGEVSCQCQLHPPR [Q8V] yielded a protein stability index of 2.73.
Work on KYMPHLCQDSSGEVSCQCQLHPSR [P23S] yielded a protein stability index of 2.47.
In the case of KYMPHLCQDSSGEVSCQCQLHPHR [P23H], the protein stability index is reported as 2.66.
With KYMPHLCQDISGEVSCQCQLHPPR [S10I] the protein stability index was 2.63.
Variant KYMPHLCQDRSGEVSCQCQLHPPR [S10R] has a protein stability index of 1.
For KYMPHLCQDSSGEVSCQCQLHYPR [P22Y], the protein stability index was 2.45.
KYMPHLCQDSSGEVSCQCQLHFPR [P22F] showed a protein stability index of 2.41.
In the case of KYMPHLCQDSSGEVSCQCQLHQPR [P22Q], the protein stability index is reported as 2.64.
KYMPHLCQDSSGEVSCQCQLHAPR [P22A] gave a protein stability index of 2.66.
In the case of KYMPHLCQDSSGWVSCQCQLHPPR [E13W], the protein stability index is reported as 1.03.
KVMPHLCQDSSGEVSCQCQLHPPR [Y2V] showed a protein stability index of 2.23.
KMMPHLCQDSSGEVSCQCQLHPPR [Y2M] gave a protein stability index of 2.52.
With KQMPHLCQDSSGEVSCQCQLHPPR [Y2Q] the protein stability index was 1.78.
KYMPHLCQDSSGEVSCQCQLHPPY [R24Y] gave a protein stability index of 3.87.
Variant KYMPHLCQDSSGEVSCQCQLHPPN [R24N] has a protein stability index of 4.28.
With IYMPHLCQDSSGEVSCQCQLHPPR [K1I] the protein stability index was 1.98.
FYMPHLCQDSSGEVSCQCQLHPPR [K1F] gave a protein stability index of 1.6.
With KYMPHLCQDSSGEVSCQCQLCPPR [H21C] the protein stability index was 2.65.
With KYMPHLCQDSSGEVSCQCQLNPPR [H21N] the protein stability index was 2.31.
KYMPHLCQDSSGEVSCQWQLHPPR [C18W] showed a protein stability index of 2.44.
KYMPHLCQDSSGEVSCQHQLHPPR [C18H] showed a protein stability index of 2.94.
In the case of KYMPHLCQDSSGEVSCQFQLHPPR [C18F], the protein stability index is reported as 1.93.
For KYMPHLCQDSSGEVSCQQQLHPPR [C18Q], the protein stability index was 3.6.
For KYMPHLCQDSSGEVSCQTQLHPPR [C18T], the protein stability index was 3.35.
With KYMPHLCQDSWGEVSCQCQLHPPR [S11W] the protein stability index was 1.28.
KYMPHLCQDSYGEVSCQCQLHPPR [S11Y] showed a protein stability index of 1.52.
Work on KYMPSLCQDSSGEVSCQCQLHPPR [H5S] yielded a protein stability index of 1.89.
With KYMPHLCQDSSGEVSCQCQQHPPR [L20Q] the protein stability index was 2.34.
KYMPHLCQDSSGEVSCQCQPHPPR [L20P] showed a protein stability index of 3.73.
KYMPHLCQDSSGEVSCQCQVHPPR [L20V] showed a protein stability index of 2.17.
For KYMPHLCQDSSGEVSCQCQGHPPR [L20G], the protein stability index was 1.85.
For KYMPHLCQDSSGEYSCQCQLHPPR [V14Y], the protein stability index was 2.08.
Work on KYMPHLCQDSSGEGSCQCQLHPPR [V14G] yielded a protein stability index of 3.14.
For KYMPHLCQDSSGERSCQCQLHPPR [V14R], the protein stability index was 2.24.
KYMPHLAQDSSGEVSCQCQLHPPR [C7A] showed a protein stability index of 1.47.
With KYMPHLQQDSSGEVSCQCQLHPPR [C7Q] the protein stability index was 2.1.
KYMPHLSQDSSGEVSCQCQLHPPR [C7S] showed a protein stability index of 1.47.
KYMPHLLQDSSGEVSCQCQLHPPR [C7L] showed a protein stability index of 1.85.
For KYRPHLCQDSSGEVSCQCQLHPPR [M3R], the protein stability index was 2.46.
KYAPHLCQDSSGEVSCQCQLHPPR [M3A] showed a protein stability index of 2.24.
Work on KYSPHLCQDSSGEVSCQCQLHPPR [M3S] yielded a protein stability index of 2.27.
In the case of KYMPHLCQDSSGEVSCMCQLHPPR [Q17M], the protein stability index is reported as 3.13.
Work on KYMPHLCQDSSGEVSCCCQLHPPR [Q17C] yielded a protein stability index of 2.32.
KYMPHTCQDSSGEVSCQCQLHPPR [L6T] showed a protein stability index of 2.34.
KYMPHECQDSSGEVSCQCQLHPPR [L6E] gave a protein stability index of 2.71.

Variants of: B2
Test: as above
Settings: c terminus: a fixed tail appended
With FVKALVDLHKMNHVTPPNVSLGAT [D6V] the protein stability index was 2.59.
FVKALEDLHKMNHVTPPNVSLGAT [D6E] showed a protein stability index of 1.97.
In the case of FVKALFDLHKMNHVTPPNVSLGAT [D6F], the protein stability index is reported as 3.31.
Work on FVKALPDLHKMNHVTPPNVSLGAT [D6P] yielded a protein stability index of 2.08.
FVKALQDLHKMNHVTPPNVSLGAT [D6Q] gave a protein stability index of 1.34.
Variant FVKALYDLHKMNHVTPPNVSLGAT [D6Y] has a protein stability index of 4.17.
FVKALKDLHKMNHVTPPNVSLGAT [D6K] gave a protein stability index of 2.39.
Work on FVKALADLHKMNHVTPPNVSLGAT [D6A] yielded a protein stability index of 2.
FVKALHDLHKMNHVTPPNVSLGAT [D6H] showed a protein stability index of 1.57.
In the case of FVKALNDLHKMNHVTPPNVSLGAT [D6N], the protein stability index is reported as 2.83.
Work on FVKALIDLHKMNHVTPPNVSLGAT [D6I] yielded a protein stability index of 2.58.
For FVKALSDLHKMNHVTPPNVSLGAT [D6S], the protein stability index was 1.46.
Work on FVKALMDLHKMNHVTPPNVSLGAT [D6M] yielded a protein stability index of 2.54.
FVKALGDLHKMNHVTPPNVSLGAT [D6G] showed a protein stability index of 2.07.
Work on FVKALTDLHKMNHVTPPNVSLGAT [D6T] yielded a protein stability index of 1.88.
In the case of FVKALWDLHKMNHVTPPNVSLGAT [D6W], the protein stability index is reported as 3.45.
FVKALCDLHKMNHVTPPNVSLGAT [D6C] showed a protein stability index of 4.16.
FVKALRDLHKMNHVTPPNVSLGAT [D6R] gave a protein stability index of 1.59.
For FFKALDDLHKMNHVTPPNVSLGAT [V2F], the protein stability index was 2.03.
FDKALDDLHKMNHVTPPNVSLGAT [V2D] gave a protein stability index of 4.22.
Work on FRKALDDLHKMNHVTPPNVSLGAT [V2R] yielded a protein stability index of 3.54.
Variant FSKALDDLHKMNHVTPPNVSLGAT [V2S] has a protein stability index of 4.07.
Variant FGKALDDLHKMNHVTPPNVSLGAT [V2G] has a protein stability index of 3.5.
With FQKALDDLHKMNHVTPPNVSLGAT [V2Q] the protein stability index was 3.18.
In the case of FMKALDDLHKMNHVTPPNVSLGAT [V2M], the protein stability index is reported as 2.7.
FAKALDDLHKMNHVTPPNVSLGAT [V2A] showed a protein stability index of 2.96.
FKKALDDLHKMNHVTPPNVSLGAT [V2K] gave a protein stability index of 3.07.
Variant FWKALDDLHKMNHVTPPNVSLGAT [V2W] has a protein stability index of 2.47.
FCKALDDLHKMNHVTPPNVSLGAT [V2C] showed a protein stability index of 2.96.
FTKALDDLHKMNHVTPPNVSLGAT [V2T] showed a protein stability index of 3.33.
Variant FPKALDDLHKMNHVTPPNVSLGAT [V2P] has a protein stability index of 3.05.
In the case of FEKALDDLHKMNHVTPPNVSLGAT [V2E], the protein stability index is reported as 3.98.
Work on FLKALDDLHKMNHVTPPNVSLGAT [V2L] yielded a protein stability index of 2.79.
FNKALDDLHKMNHVTPPNVSLGAT [V2N] showed a protein stability index of 4.52.
With FYKALDDLHKMNHVTPPNVSLGAT [V2Y] the protein stability index was 2.51.
Variant FIKALDDLHKMNHVTPPNVSLGAT [V2I] has a protein stability index of 2.22.
In the case of FHKALDDLHKMNHVTPPNVSLGAT [V2H], the protein stability index is reported as 3.07.
For FVKGLDDLHKMNHVTPPNVSLGAT [A4G], the protein stability index was 2.68.

Reference: the supplement of paper PMC10567573
